Test results published in US20110288001A1, “BIOLOGICALLY ACTIVE PROTEINS ACTIVATABLE BY PEPTIDASE” (priority 2008, published 2011).

Tests used:
[1] = molecular target: human GLP1 receptor (human) (UniProt P43220); assay: cell-based or functional assay
[2] = in vivo; cited from earlier work
[3] = in vivo; cited from earlier work; remark: listed apart in the source
[4] = tested on: PB0967, GLP1-ELP construct with Met-Ala-Ala at the N-terminus (Met removed by E. coli), not treated with DPP-IV

UniProt P43220, sequence (P43220 24-463): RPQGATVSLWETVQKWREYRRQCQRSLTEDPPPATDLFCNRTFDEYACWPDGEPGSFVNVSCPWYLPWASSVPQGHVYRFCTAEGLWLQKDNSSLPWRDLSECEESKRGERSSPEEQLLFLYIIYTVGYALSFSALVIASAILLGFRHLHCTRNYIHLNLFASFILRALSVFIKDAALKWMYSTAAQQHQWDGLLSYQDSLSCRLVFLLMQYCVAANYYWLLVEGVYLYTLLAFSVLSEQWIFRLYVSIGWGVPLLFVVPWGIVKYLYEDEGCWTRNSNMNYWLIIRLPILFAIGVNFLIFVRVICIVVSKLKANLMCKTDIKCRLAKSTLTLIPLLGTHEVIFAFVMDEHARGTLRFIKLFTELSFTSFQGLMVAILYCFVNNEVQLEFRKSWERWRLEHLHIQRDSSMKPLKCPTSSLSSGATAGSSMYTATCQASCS

Exendin-4 peptide
EC50 in cAMP assay [1]: 1 nM

HSDAVFTDNYTRLRKQMAVKKYLNSILN [VIP]
half-life in the blood [2]: about two

GLP-1: native glucagon-like peptide-1, physiological incretin originating from preproglucagon
plasma half-life (t1/2) [3]: 1 to 2 min

dipeptidyl peptidase-4 (DPP-IV)
gain of cAMP activity of the substrate after DPP-IV treatment (enzyme processing) [4]: is activated if it is first treated with DPP-IV to remove the remaining Ala-Ala and expose the N-terminal His of GLP1
